Patent US20170157212

Test system: purified recombinant CRIF1

With HA-tagged full-length human CDK12 the “CDK12-mediated phosphorylation of the human GST-CTD substrate in vitro (immunoblot, CTD-Ser2P)” value was “recombinant CRIF1 potently inhibited CDK12-mediated phosphorylation of the human GST-CTD substrate in vitro, in a dose-dependent manner” and the “S65 and T70 phosphorylation of recombinant 4E-BP1 in vitro (reactions with CDK12 and mTORC1/Raptor)” value was “rCRIF1 potently and selectively inhibited S65 and T70 phosphorylation of 4E-BP1 in vitro, in a dose-dependent manner, without affecting phosphorylation of the T37/46 sites by mTORC1”.
